Measured values from the DeepSol protein solubility set.

assay: soluble on expression in E. coli; label from the status in PepcDB or PDB records

| Sequence | soluble on expression in E. coli |
| --- | --- |
| MLGSPVAGAQVRVWQLDLDGQRKGREPLREAVTDDRGRFRIEMGAAHGNLLVESAGGETRELWSEEPLGLDPDVPLEAIIPLYIPVQHREIVVSPFTSVAAALVERRPVEPGRFHEAMQGVHALLGGHLGGIDILDAPVTPIDEPATQLTPGVRHGLLLGALSMLAGRMAEETGASVRGLNTMMLTAALREDARDESGLLDGVGPEGAIALGFCVDPPSGADTPLCRLSAQTLRQDLAETLAFHLLGSAQDGTGLSFGDGVVLANEVAQGTETALFGNVQPGNVGDERAPVITPLASPYYEESEDAIAFEDDLTPVHVRSEAARIDLSEVFENDCDREIHKHVDVLGAGDANPLRWRFAVKDDLAGFDVEDLLVQLRVPGVLAARPLAVTSVELPEGETAPGRVFEVFARERDAEELARVEGRYNIEIAATDRLGNTSPVLRGCWRHVPRAAPLWAGSFNAASGPGSFDERRLESNNLAPVLRGDQAPVLARLEVQNNTDEDVFLTLRADDIVGRYSATWTRSRVLLSEEEGMSDCLETGECFSAPPPDVVDEIIGLQPIPDSLVTLRVFDLATGVTPKCPNCRPNEVQIAAGGHFEVQAVVSNLAFLVPPSVNRTQIQEIQVGPIGAQVQLTGVDRRGYVHCEDTVPGSSLCRVRLSYQLFHALARATLQVDSLTISAVSSPLSTLAPRSPQPPLEGDNFTFSLPVSTAVTWTTEDASIPVSQ | not soluble |
| MGSDKIHHHHHHMLVYPSGIDLSTSTLRYLSDLLRARRRERGTRWRRLTTDRQALLALAHLRCGHTYAQLAAGFGIGLATVYRYIVEAVEVLAALAPTLQQAMTFAANKAFVILDGTLLHIDRIAADRPYYSGKHKRHGMNVQVIADAFGRLLWASPALPGAVHDIKAARIHGIIEALTQAGIRTWADKGYQGAQGTIRVPYRGRWSTLPAGKRAVNSSHAKIRAVGEQANATLKSWRLLRKLRCSTTRITDIVKAVLALHLATAA | not soluble |
| SFDRALKPFLQSCHLRMLTDPVDQCVAYHLGRVRESLPELQIEIIADYEVHPNRRPKILAQTAAHVAGAAYYYQRQDVEADPWGNQRISGVCIHPRFGGWFAIRGVVLLPGIEVPDLPPRKPHDCVPTRADRIALLEGFNFHWRDWTYRDAVTPQERYSEEQKAYFSTPPAQRLALLGLAQPSEKPSSPSPDLPFTTPAPKKPGNPSRARSWLSPRVSPPASPGP | soluble |
| MGSDKIHHHHHHMTALDDKTIVRDYFNATGFDRWSRIYGDGEVNFVQKNIRIGHQRTVDTVLSWLEADGNLSDRSFCDAGCGVGSLSLPLAQRGAQAVYASDISAKMVEEARERASQIPNLNNIQLEVSDLASLSGRYDTVICLDVLIHYPESDAAAMLSHLCSLAEQRVLVSFAPKSPVLNVLKRIGQFFPGASKTTRAYQHSETAIAAALAANGFQVQRRAFNKAPFYFSLLLEAVRTA | not soluble |
| MGSDKIHHHHHHMKKYLLYMVQVHLNFRRAELESLADLYNLSIDFSQYDANSPFFIVELENDQQAKDWIKRSILTRGIYEYWGQGTTLDELHKDIQRQSNFEQDLQLKFKHSTFKFEFECYKGNSKAKRVEQIETFRYLGFEGKIDMKHPQEVFTVIEEYTPISENVGGKTPTRIYFGRQVQMSNRSAMEKYDLKKRPYKGTTSFEAELSLVSANIAQVKPGTIMYDPFAGTGSFLVAGGHFGSLVIGSDIDGRMIRGKGAQVNISANFKKYGESSQFLDVLTMDFTNNALRNNLVIDTILCDPPYGIRESIKVLGAKDPERFLGKEDMEIDGEKAYLRRDYIPTKKPYALDSLLDDLLQYSSERLPIGGRLAFWMPTANDANIETIVPMHENLELKYNCVQEFNKWSRRLLVYINRGSTFNGSSNHGIKRSKDNFRERYFNNFN | not soluble |
| MGSDKIHHHHHHALGDQTLRKGQSHPDVKELQEALKKKGFFNYHTSTGYFGSITEDAVREFQMKHGLQVDGIAGPQTLNALLSQMNGNNGGQQTSSSAPNSTSNSTILRFGSSGQAVRDLQEKLKAKGYYNHSITGQYGRITTEAVREFQRANRLTVDGIAGPQTLAALTNQAPAASAPQYNAPVQQTTVLRQGSRGDAVRDLQRSLKDLGYYKSSIDGIFGAGTTTAVREFQRKMGLTVDGVAGPQTLNALHVNPTPNTSNGQSSSSGGNTASSGNRGATITNIVANASELIGTPYVWGGTTPRGFDCSGFVQYVFAQQGVSIPRTVAQMWNAGTSVSQPSVGDIVFFDTTGGPSHNGIYIGNNQFIHSGSSTGVTIASMNNSYWASRYLGAKRLY | not soluble |
| MSQTITVKVKLLPTKEQIQLLEQSSYEYIKVINTLVSEMAEAKKSTKKSTKDVEANLPSAVKNQAIKDAKSVFSTKVKKSKYKVIPILKRPVCVWNNQNYSFDFTHISVPLMVNGKSTRLKVRALLTDKYNRNFNLLTHKLGTLRITKKSNKWIAQISVTIPTNEKTGTKILGVDLGLKVPAVAITDDEKVRFFGNGRQNKYMKRKFRSVRKKLGENKKLNAIRQLDDKEQRWMQDQDHKVSREIIDFATDNNISVIRLEQLTNIRQTARTSRKNEKNLHTWSFYRLAQFIEYKANLVGIKVEYVNPAYTSQTCPKCSEKNKAPDRKYKCRCGFEKHRDIVGAMNIRYATVIDGNSQSALEHHHHHH | soluble |
| MGSDKIHHHHHHMTTNEIEIRLMQDVDAAGVVELYKTVYGNEYPVKTVYDPAAVIEQQNNGEMYRIIARSGDKVVGQTALYRSTSPNPELYEEGQGIVLPLYRNQGILEQCLAYGHKVAYPQLNIKQEWGEAVCNHTFTQKAGARLGAFETGIELDLMPASSYVKEQSSQGRVAALVMFLIFQAAPPQLLYLPETYADSLHYLYSAYDFKHEFVSSKSLLPEQATRGQVEIYADAAVARFTLLETGKDLEDYLLEQEKLAQAQGCSVFQAYLKLANPAVGHAVNILREHQYFLGGILPRWFATDGLLMQKLLHEPNLEGINLYSERSHKILNMIIDDRNTVIK | not soluble |
| MAHHHHHHMRLTASRALLQQAGEMCTALHWMCRIAARVPESGLSGSQLQALLDDEFPSFSPSEVGAVTLKEAVLRFPELLSVEDGSQLQAKWRVRPTHAHKTQEQRASPSSKPTETYTLPMMKLQQFCTKRARMHRNTYMPLEYVLSKADITDVNIVGEVLHNPDAALDVQAGVRIKPKRTPRAVVAFVDGDALPAVAVDEMCNELNVLKESSIVTIVRQPGSHELSAVDIVCPDVIPTYLSIEKHAHELRLRRPNVRHDVVYMCAASQFNIYADRVALLNDFPDADVYVCCPSMIALVKPKKVIPFE | soluble |
| MGHHHHHHSHMPATLLRAVARSHHILSKAHQCRRIGHLMLKPLKEFENTTCSTLTIRQSLDLFLPDKTASGLNKSQILEMNQKKSDTSMLSPLNAARCQDEKAHLPTMKSFGTHRRVTHKPNLLGSKWFIKILKRHFSSVSTETFVPKQDFPQVKRPLKASRTRQPSRTNLPVLSVNEDLMHCTAFATADEYHLGNLSQDLASHGYVEVTSLPRGTSS | not soluble |
| MAHHHHHHMHSSPFPSLFLVSRNGAHASRFSVVQLEYITSTCFSLLQVVTYRVATCSHGTMTALADEVREKYSLSLSSDYVERCVQAKASLTSLELYQKSLWENLRDICGTSLLPYGIGAQVSATLPNAVVMQINASRDATQPLRPCADASDEEAFLNAAFQRNSSKRLLRLQLTDGNVEISALELSTLCVFQGIPTPGEKLLIHKGAEVRNGCIILSEGSVSVLGGEVRQLKQDFLANRRRLEVGYQTSNGLDGAPRFAPLQVGHHYRSSVANSGAPVDIGHQGGASPYHANERGGRRSNYSRNGGGGGRAQQAGDNYEGRVSAGDHGRGGRGGRGGRGWDSSYGGDGWRGHGRRGGGYVRRGDGGRVDSRGCVGGASYHVDTANFQPPAEKFPEINEANFPRLV | not soluble |
| MSEDIGVTRFREYLRVNTEQPKPDYEACRDFLFKYADELGIERRSVETAPGTYFVIMTIPGSKPDLPSIMLYSHTDVVPTFREYWTHDPYSAFKDEDGNIFARGAQDMKCVGVQYMEALRNWFAKGVKQWTRTIHIVWGPDEEIGHINGMKGFAVTEEFKKLNIDFALDEGIATEDDVYKIFYAERIPWWVKVTLPGHPGHGSKFIEKTAIEKLHKLIASVDEFRNEQKSLLAEHPEWTVGDVTTSNITIINGGVQVNVVPEKFEAYIDIRVTPLQDLDAVLARVDQWAKEAGEGVTYEFMQFSNFKLISPNTREDPFWAAIDDALQKEGCKYKKEIFIGATDSRFVRAQGIRAIGFSPIINTPSLLHDHNEFLNEKTFLRGVEIYETLINKLANVN | not soluble |
| MGSSHHHHHHSSGLVPRGSQSTSLYKKAGLMISAGDFKNGVTFELDGQIFQVIEFQHVKPGKGAAFVRTKLKNIVTGATIEKTFNPTDKMPKAHIERKDMQYLYNDGDLYYFMDTETFEQLPLGKDKIGDALKFVKENEIVKVLSHKGNVFGIEPPNFVELEVTDTEPGFKGDTATGATKPAIVETGASIKVPLFVNKGDIIRIDTRTGEYMERV | soluble |
| MAHHHHHHMAFTDAVAGKTSLPPPVAIIVGHNIDASAMPLTYERNRLVIDMLQHYACPVFSHKKSGDAMNTVSSDVFEWVLEPLPVVGVEDMTAFHDRAYLNYLSIREALSEVDERASTVKRSRAEGIQPPVSRRSSAQNQPPLRVLPDLVPIPTDEEYGLVNENMPFVGMWRTIQATVSGTLLAARLLAQPGRFAAIHWFGGRHHAKQSTAGGFCFANDVVLGVLELKKLLSSDKKGILVVDVDAHHGDGTQSAFLHDNSVLTLSMHAHGVGIFPGSGGIEEIGAGLGRGFTMNVPLPEGATDILAVTLMYRSIHFAFKKLGEGLAAIVIVCGSDALSGDPLGALNLTVGGMQSIIRLLLKEAARRSLKVLLLGGGGYVDTSCARLAGVVTKDVLSCAAAMRLGKTEYFGDSANLGDNLGVAVPEGCEYFTRYGPSFLMHGLPPARVSKLYRLPYGSPLFMRMQRAATKEALRRRRNQEQDEEEEEEEEEEEEEEEEEEEEEEEEEVEEEEGEGEEEA | not soluble |
| AHHHHHHGSAGVRLVDVWKVFGEVTAVRELSLEVKDGEFMILLGPSGCGKTTTLRMIAGLEEPSRGQIYIGDRLVADPEKGIFVPPKDRDIAMVFQSYALYPHMTVYDNIAFPLKLRKVPRQEIDQRVREVAELLGLTELLNRKPRELSGGQRQRVALGRAIVRKPQVFLMDEPLSNLDAKLRVRMRAELKKLQRQLGVTTIYVTHDQVEAMTMGDRIAVMNGGVLQQVGSPDEVYDKPANTFVAGFIGSPPMNFLDAIVTEDGFVDFGEFRLKLLPDQFEVLGELGYVGREVIFGIRPEDLYDAMFARVRVPGENLVRAVVEIVENLGSERIVHLRVGGVTFVGAFRSESRVREGVEVDVVFDMKKIHIFDKTTGKAIF | soluble |
